Reference: patent US20260137822A1 (ABDERA THERAPEUTICS, published 2026)

T1: human DLL3 (antigen of Example 30) (human, UniProt Q9NYJ7 27-492, limits assumed)
T1 construct: also called hDLL3
T1 sequence (looked up): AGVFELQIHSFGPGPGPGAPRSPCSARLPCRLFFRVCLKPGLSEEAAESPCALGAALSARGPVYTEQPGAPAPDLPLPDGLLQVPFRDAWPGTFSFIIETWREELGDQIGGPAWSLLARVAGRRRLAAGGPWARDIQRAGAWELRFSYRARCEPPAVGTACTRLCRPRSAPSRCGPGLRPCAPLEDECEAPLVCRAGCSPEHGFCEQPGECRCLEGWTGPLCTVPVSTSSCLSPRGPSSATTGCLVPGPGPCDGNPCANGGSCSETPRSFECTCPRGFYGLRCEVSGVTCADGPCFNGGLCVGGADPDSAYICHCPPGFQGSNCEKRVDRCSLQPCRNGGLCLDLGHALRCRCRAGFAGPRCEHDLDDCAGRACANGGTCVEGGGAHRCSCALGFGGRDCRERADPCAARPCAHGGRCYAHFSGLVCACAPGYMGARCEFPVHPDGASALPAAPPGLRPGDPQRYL

T2: FcγRIIa (H167) (biotinylated, Acro Biosystems) (UniProt P12318 36-218, biotinylated)
T2 sequence (looked up): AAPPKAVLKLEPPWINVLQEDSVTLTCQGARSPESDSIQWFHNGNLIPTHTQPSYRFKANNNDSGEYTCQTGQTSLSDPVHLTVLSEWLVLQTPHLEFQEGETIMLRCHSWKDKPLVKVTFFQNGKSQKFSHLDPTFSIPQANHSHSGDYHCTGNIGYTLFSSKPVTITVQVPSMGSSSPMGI

T3: FcγRIIa (R167) (biotinylated, Acro Biosystems) (UniProt P12318 36-218, biotinylated)
T3 sequence (looked up): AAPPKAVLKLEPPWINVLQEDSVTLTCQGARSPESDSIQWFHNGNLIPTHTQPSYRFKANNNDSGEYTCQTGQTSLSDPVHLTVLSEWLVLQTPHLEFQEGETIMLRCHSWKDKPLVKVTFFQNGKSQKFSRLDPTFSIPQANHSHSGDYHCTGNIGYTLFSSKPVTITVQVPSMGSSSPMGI

T4: FcγRIIb/c (biotinylated, Acro Biosystems) (UniProt P31994 46-217, biotinylated)
T4 sequence (looked up): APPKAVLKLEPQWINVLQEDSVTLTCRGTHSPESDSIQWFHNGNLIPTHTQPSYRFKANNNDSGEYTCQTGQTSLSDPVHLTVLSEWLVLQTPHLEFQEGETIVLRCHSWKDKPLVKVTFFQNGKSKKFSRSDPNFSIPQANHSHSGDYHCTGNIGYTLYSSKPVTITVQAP


Assays:
[1] = molecular target: T5, murine FOLR1 (antigen of the Octet assay) (murine, UniProt P35846 25-232, limits assumed); assay: BLI (Octet), tetramer captured on AHC sensor, antigen as analyte
T5 construct: also called mFOLR1

[2] = molecular target: T1, human DLL3 (antigen of Example 30); assay: as above
[3] = molecular target: T6, FOLR1 on cells (OVCAR3, OV-90) (UniProt P15328 25-234); assay: flow cytometry on FOLR1 expressing OV-90 cells, Geomeans RL1-H against Conc (nM); linker not printed on the sheet, taken as the (GGS)3 parent of the conjugate [bottom panel]
T6 construct: whole, on cells; also called FOLR1-positive OVCAR3 cells; FOLR1 expressing OV-90 cells

[4] = molecular target: T6, FOLR1 on cells (OVCAR3, OV-90); assay: binding to FOLR1-positive OVCAR3 cells
[5] = molecular target: T7, human FOLR1 (antigen of the Octet assay) (human, UniProt P15328 25-234, limits assumed); assay: BLI (Octet), tetramer captured on AHC sensor, antigen as analyte
T7 construct: also called hFOLR1

[6] = molecular target: T2, FcγRIIa (H167) (biotinylated, Acro …); assay: BLI, biotinylated FcγR on SA sensor
[7] = molecular target: FcγRIIIa (F176) (biotinylated, Acro Biosystems) (UniProt P08637 17-208, biotinylated); assay: BLI, biotinylated FcγR on SA sensor
[8] = molecular target: FcγRIIIa (V176) (biotinylated, Acro Biosystems) (UniProt P08637 17-208, biotinylated); assay: BLI, biotinylated FcγR on SA sensor
[9] = molecular target: T3, FcγRIIa (R167) (biotinylated, Acro …); assay: BLI (Octet), biotinylated FcγR on SA sensor, steady state analysis
[10] = molecular target: biotinylated hFcRn (Sino Biological, Cat #: CT071-H27H-B) (human, UniProt P55899 24-297; P61769 21-119, biotinylated); assay: BLI (Octet), biotinylated hFcRn on SA sensor, pH 6.0, 2:1 heterogeneous ligand model
[11] = molecular target: FcγRI (biotinylated, Acro Biosystems) (UniProt P12314 16-288, biotinylated); assay: BLI, biotinylated FcγR on SA sensor
[12] = molecular target: T4, FcγRIIb/c (biotinylated, Acro …); assay: BLI (Octet), biotinylated FcγR on SA sensor, steady state analysis

FcγRI (biotinylated, Acro Biosystems), sequence (P12314 16-288 limits assumed): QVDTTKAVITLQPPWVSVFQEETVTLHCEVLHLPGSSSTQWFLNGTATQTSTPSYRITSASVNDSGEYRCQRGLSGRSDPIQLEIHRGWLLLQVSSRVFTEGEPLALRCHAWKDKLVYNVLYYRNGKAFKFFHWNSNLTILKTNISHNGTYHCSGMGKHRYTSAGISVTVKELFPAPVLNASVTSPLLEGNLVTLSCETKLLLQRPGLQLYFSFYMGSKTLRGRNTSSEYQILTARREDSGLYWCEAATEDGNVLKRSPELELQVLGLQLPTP
FcγRIIIa (F176) (biotinylated, Acro Biosystems), sequence (P08637 17-208 limits assumed): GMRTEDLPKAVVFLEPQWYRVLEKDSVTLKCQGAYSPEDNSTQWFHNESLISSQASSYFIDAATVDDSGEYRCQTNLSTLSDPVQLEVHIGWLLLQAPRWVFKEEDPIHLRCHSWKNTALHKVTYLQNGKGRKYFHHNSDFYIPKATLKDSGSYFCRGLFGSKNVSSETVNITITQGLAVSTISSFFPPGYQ
T6 sequence (P15328 25-234): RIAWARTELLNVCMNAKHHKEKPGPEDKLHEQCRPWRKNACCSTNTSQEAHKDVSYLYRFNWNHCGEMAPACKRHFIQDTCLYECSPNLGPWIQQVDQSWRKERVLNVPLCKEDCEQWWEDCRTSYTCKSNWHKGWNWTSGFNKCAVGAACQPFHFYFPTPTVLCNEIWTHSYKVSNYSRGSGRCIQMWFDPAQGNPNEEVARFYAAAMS
FcγRIIIa (V176) (biotinylated, Acro Biosystems), sequence (P08637 17-208 F176V limits assumed): as the sequence (P08637 17-208 limits assumed) above, with F160V counted along it
T5 sequence (P35846 25-232 limits assumed): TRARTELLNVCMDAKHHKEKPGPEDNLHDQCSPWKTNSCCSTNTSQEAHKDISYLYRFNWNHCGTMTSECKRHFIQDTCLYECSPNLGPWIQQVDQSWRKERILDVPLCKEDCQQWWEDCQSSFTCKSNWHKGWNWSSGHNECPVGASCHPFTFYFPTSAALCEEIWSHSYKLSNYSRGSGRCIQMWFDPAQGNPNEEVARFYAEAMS
T7 sequence (P15328 25-234 limits assumed): as the sequence (P15328 25-234) above

Row | Binder | binding result [1] | binding result [2] | EC50 (read off the curve) [3] | binding result [4] | binding result [5] | binding result [6] | binding result [7] | binding result [8] | Kd [9] | Kd [10] | binding result [11] | Kd [12]
1 | Anti-FOLR1x2; Anti-DLL3x2; (GGS)3 tetramer (bispecific antibody, As m61 with the (GGS)3 linker; also called bispecific tetramer GGSx3; not shown: hinge) chain (part 1 of 2): QVQLVESGGGLVQPGGSLRLSCAASGFTVSNSVMAWYRQTPGNEREFVAIINSIGITNYADSVKGRFTISRDNSKNTLYLQMNSLRAEDTAVYVCNRNFDRIYWGQGTLVTVSSGGSGGSGGSEVQLVESGGGEVQPGGSLRLSCAASGSIFSINAMGWYRQAPGKQRELVAGFTGDTNTIYAESVKGRFTISRDNAKNTVYLQMSSLRAEDTAVYYCAADVQLFSRDYEFYWGQGTLVTVKP chain (part 2 of 2): not shown | binds | binds | ~3 nM | – | – | – | – | – | – | – | – | –
2 | Anti-FOLR1x2; Anti-DLL3x2; (GGS)4 tetramer (bispecific antibody, As m61 with the (GGS)4 linker; also called bispecific tetramer GGSx4; not shown: hinge) chain (part 1 of 2): QVQLVESGGGLVQPGGSLRLSCAASGFTVSNSVMAWYRQTPGNEREFVAIINSIGITNYADSVKGRFTISRDNSKNTLYLQMNSLRAEDTAVYVCNRNFDRIYWGQGTLVTVSSGGSGGSGGSGGSEVQLVESGGGEVQPGGSLRLSCAASGSIFSINAMGWYRQAPGKQRELVAGFTGDTNTIYAESVKGRFTISRDNAKNTVYLQMSSLRAEDTAVYYCAADVQLFSRDYEFYWGQGTLVTVKP chain (part 2 of 2): not shown | binds | binds | – | binds | binds | – | – | – | – | – | – | –
3 | Anti-FOLR1x2; Anti-DLL3x2; (GGGGS)3 tetramer (bispecific antibody, entry chosen by mutation status; also called bispecific tetramer GGGGSx3; not shown: hinge) chain (part 1 of 2): QVQLVESGGGLVQPGGSLRLSCAASGFTVSNSVMAWYRQTPGNEREFVAIINSIGITNYADSVKGRFTISRDNSKNTLYLQMNSLRAEDTAVYVCNRNFDRIYWGQGTLVTVSSGGGGSGGGGSGGGGSEVQLVESGGGEVQPGGSLRLSCAASGSIFSINAMGWYRQAPGKQRELVAGFTGDTNTIYAESVKGRFTISRDNAKNTVYLQMSSLRAEDTAVYYCAADVQLFSRDYEFYWGQGTLVTVKP chain (part 2 of 2): not shown | binds | binds | – | binds | binds | – | – | – | – | – | – | –
4 | H133 (Fc fusion, not shown: hinge; copies: 2 + 2) chain (part 1 of 2): QVQLQESGGGSVQAGGSLKLTCAASGYIFNSCGMGWYRQSPGRERELVSRISGDGDTWHKESVKGRFTISQDNVKKTLYLQMNSLKPEDTAVYFCAVCYNLETYWGQGTQVTVSS chain (part 2 of 2): APEAEGAPSVFLFPPKPKDTLMISRTPEVTCVVVDVSHEDPEVKFNWYVDGVEVHNAKTKPREEQYNSTYRVVSVLTVLHQDWLNGKEYKCKVSNKALPSSIEKTISKAKGQPREPQVYTLPPSREEMTKNQVSLTCLVKGFYPSDIAVEWESNGQPENNYKTTPPVLDSDGSFFLYSKLTVDKSRWQQGNVFSCSVMHEALHNHYTQKSLSLSPG | – | – | – | – | – | no binding | no binding | no binding | 2300 nM | 2.1 nM | – | –
5 | D134 (Fc fusion, not shown: hinge; copies: 2 + 2) chain (part 1 of 2): EVQLVESGGGEVQPGGSLRLSCAASGSIFSINAMGWYRQAPGKQRELVAGFTGDTNTIYAESVKGRFTISRDNAKNTVYLQMSSLRAEDTAVYYCAADVQLFSRDYEFYWGQGTLVTVKP chain (part 2 of 2): APEAEGAPSVFLFPPKPKDTLMISRTPEVTCVVVDVSHEDPEVKFNWYVDGVEVHNAKTKPREEQYNSTYRVVSVLTVLHQDWLNGKEYKCKVSNKALPSSIEKTISKAKGQPREPQVYTLPPSREEMTKNQVSLTCLVKGFYPSDIAVEWESNGQPENNYKTTPPVLDSDGSFFLYSKLTVDKSRWQQGNVFSCSVMHEALHNHYTQKSLSLSPG | – | – | – | – | – | – | no binding | no binding | 460 nM | 1.9 nM | no binding | 1100 nM

The next lines start with the values.

Row | binding result [1] | binding result [2] | EC50 (read off the curve) [3] | binding result [4] | binding result [5] | binding result [6] | binding result [7] | binding result [8] | Kd [9] | Kd [10] | binding result [11] | Kd [12] | Binder
6 | – | – | – | – | – | no binding | no binding | no binding | 1200 nM | – | no binding | – | H135 (Fc fusion, not shown: hinge; copies: 2 + 2) chain (part 1 of 2): QVQLQESGGGSVQAGGSLKLTCAASGYIFNSCGMGWYRQSPGRERELVSRISGDGDTWHKESVKGRFTISQDNVKKTLYLQMNSLKPEDTAVYFCAVCYNLETYWGQGTQVTVSS chain (part 2 of 2): APEAEGAPSVFLFPPKPKDTLMISRTPEVTCVVVDVSHEDPEVKFNWYVDGVEVHNAKTKPREEQYNSTYRVVSVLTVLAQDWLNGKEYKCKVSNKALPSSIEKTISKAKGQPREPQVYTLPPSREEMTKNQVSLTCLVKGFYPSDIAVEWESNGQPENNYKTTPPVLDSDGSFFLYSKLTVDKSRWQQGNVFSCSVMHEALHNHYTQKSLSLSPG
7 | – | – | – | – | – | – | no binding | no binding | 570 nM | – | no binding | 2200 nM | D136 (Fc fusion, not shown: hinge; copies: 2 + 2) chain (part 1 of 2): EVQLVESGGGEVQPGGSLRLSCAASGSIFSINAMGWYRQAPGKQRELVAGFTGDTNTIYAESVKGRFTISRDNAKNTVYLQMSSLRAEDTAVYYCAADVQLFSRDYEFYWGQGTLVTVKP chain (part 2 of 2): APEAEGAPSVFLFPPKPKDTLMISRTPEVTCVVVDVSHEDPEVKFNWYVDGVEVHNAKTKPREEQYNSTYRVVSVLTVLAQDWLNGKEYKCKVSNKALPSSIEKTISKAKGQPREPQVYTLPPSREEMTKNQVSLTCLVKGFYPSDIAVEWESNGQPENNYKTTPPVLDSDGSFFLYSKLTVDKSRWQQGNVFSCSVMHEALHNHYTQKSLSLSPG
8 | – | – | – | – | – | no binding | no binding | no binding | 1200 nM | – | no binding | – | H137 (Fc fusion, not shown: hinge; copies: 2 + 2) chain (part 1 of 2): QVQLQESGGGSVQAGGSLKLTCAASGYIFNSCGMGWYRQSPGRERELVSRISGDGDTWHKESVKGRFTISQDNVKKTLYLQMNSLKPEDTAVYFCAVCYNLETYWGQGTQVTVSS chain (part 2 of 2): APEAEGAPSVFLFPPKPKDTLMISRTPEVTCVVVDVSHEDPEVKFNWYVDGVEVHNAKTKPREEQYNSTYRVVSVLTVLHQDWLNGKEYKCKVSNKALPSSIEKTISKAKGQPREPQVYTLPPSREEMTKNQVSLTCLVKGFYPSDIAVEWESNGQPENNYKTTPPVLDSDGSFFLYSKLTVDKSRWQQGNVFSCSVMHEALHNQYTQKSLSLSPG
9 | – | – | – | – | – | – | no binding | no binding | 520 nM | – | – | 770 nM | D138 (Fc fusion, not shown: hinge; copies: 2 + 2) chain (part 1 of 2): EVQLVESGGGEVQPGGSLRLSCAASGSIFSINAMGWYRQAPGKQRELVAGFTGDTNTIYAESVKGRFTISRDNAKNTVYLQMSSLRAEDTAVYYCAADVQLFSRDYEFYWGQGTLVTVKP chain (part 2 of 2): APEAEGAPSVFLFPPKPKDTLMISRTPEVTCVVVDVSHEDPEVKFNWYVDGVEVHNAKTKPREEQYNSTYRVVSVLTVLHQDWLNGKEYKCKVSNKALPSSIEKTISKAKGQPREPQVYTLPPSREEMTKNQVSLTCLVKGFYPSDIAVEWESNGQPENNYKTTPPVLDSDGSFFLYSKLTVDKSRWQQGNVFSCSVMHEALHNQYTQKSLSLSPG
